The source of these data is doi:10.1101/2021.12.02.471034.

Assay in all cases: SEC-MALS
(SEC sorts molecules by how far they enter the pores of the column.)

The target of assay [1] is Hsf1 CS mutant (C35S/C103S/C153S/C373S/C378S) (human) (UniProt Q00613).
Assay [2] addresses T1, Heat shock factor 1 (Hsf1) (human), Q00613.
T1 chain: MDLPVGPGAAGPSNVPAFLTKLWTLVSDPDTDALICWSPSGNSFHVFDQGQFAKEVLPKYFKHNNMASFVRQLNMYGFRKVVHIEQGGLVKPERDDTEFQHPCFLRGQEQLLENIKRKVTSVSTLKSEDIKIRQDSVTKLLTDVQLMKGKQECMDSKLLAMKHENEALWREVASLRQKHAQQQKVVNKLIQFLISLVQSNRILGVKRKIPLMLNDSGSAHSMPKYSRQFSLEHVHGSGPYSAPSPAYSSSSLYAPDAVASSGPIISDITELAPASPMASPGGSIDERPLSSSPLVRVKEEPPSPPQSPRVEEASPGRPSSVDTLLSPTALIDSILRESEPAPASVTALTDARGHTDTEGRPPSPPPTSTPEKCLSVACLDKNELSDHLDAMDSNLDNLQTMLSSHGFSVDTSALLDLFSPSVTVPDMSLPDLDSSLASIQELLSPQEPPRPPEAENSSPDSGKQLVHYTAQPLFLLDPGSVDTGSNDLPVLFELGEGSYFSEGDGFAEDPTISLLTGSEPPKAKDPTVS
The conditions noted are these: remark: other sources report otherwise.

Assay [3] addresses T1, Heat shock factor 1 (Hsf1) (human), …. The conditions noted are these: remark: other sources report otherwise.

Values joined by “and” are separate entries in the source; they are usually repeats but may differ in a detail not shown here. Equal values may be shown once.

The term stoichiometry N denotes a count of units in the complex or per binding partner.

On to “Hsf1 CS mutant (C35S/C103S/C153S/C373S/C378S) (from UniProt Q00613 1-529) (natural protein)”, for which, in assay [1], the stoichiometry N was 5.

B1: Heat shock factor 1 (Hsf1), Q00613 1-529 (natural protein)
chain: MDLPVGPGAAGPSNVPAFLTKLWTLVSDPDTDALICWSPSGNSFHVFDQGQFAKEVLPKYFKHNNMASFVRQLNMYGFRKVVHIEQGGLVKPERDDTEFQHPCFLRGQEQLLENIKRKVTSVSTLKSEDIKIRQDSVTKLLTDVQLMKGKQECMDSKLLAMKHENEALWREVASLRQKHAQQQKVVNKLIQFLISLVQSNRILGVKRKIPLMLNDSGSAHSMPKYSRQFSLEHVHGSGPYSAPSPAYSSSSLYAPDAVASSGPIISDITELAPASPMASPGGSIDERPLSSSPLVRVKEEPPSPPQSPRVEEASPGRPSSVDTLLSPTALIDSILRESEPAPASVTALTDARGHTDTEGRPPSPPPTSTPEKCLSVACLDKNELSDHLDAMDSNLDNLQTMLSSHGFSVDTSALLDLFSPSVTVPDMSLPDLDSSLASIQELLSPQEPPRPPEAENSSPDSGKQLVHYTAQPLFLLDPGSVDTGSNDLPVLFELGEGSYFSEGDGFAEDPTISLLTGSEPPKAKDPTVS
For B1, the stoichiometry N was 7 in assay [2]; 9 and < 16 in assay [3].
